Experimental data published in the supplement of paper PMC7877785.
± gives the uncertainty stated by the source.

Experiment: self-splicing fitness, log relative to wild type (ln ratio); higher = more splicing; Tetrahymena group I intron in knt gene, E. coli kanamycin selection, DiMSum; sequences stand for … in CUCUCU…GGAGGGAAAAGUUAUCAGGCAUGCACCUGGUAGCUAGUCUUUAAACCAAUAGAUUGCAUCGGUUUAAAAGGCAAGACCGUCAAAUUGCGGGAAAGGGGUCAACAGCCGUUCAGUACCAAGUCUCAGGGGAAACUUUGAGAUGGCCUUGCAAAGGGUAUGGUAAUAAGCUGACGGACAUGGUCCUAACCACGCAGCCAAGUCCUAAGUCAACAGAUCUUCUGUUGAUAUGGAUGCAGUUCACAGACUAAAUGUCGGUCGGGGAAGAUGUAUUCUUCUCAUAAGAUAUAGUCGGACCUCUCCUUAAUGGGAGCUAGCGGAUGAAGUGAUGCAACACUGGAGCCGCUGGGAACUAAUUUGUAUGCGAAAGUAUAUUGAUUAGUUUUGGAGUACUCGUGGUCG
Procedure, shortened: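 Six replicate transformations of E. coli BL21(DE3) with a pET-22b(+) library were grown overnight at 37°C or 30°C. The library randomised all eight P1ex-region intron nucleotides, the intron lying in the knt kanamycin-resistance gene, and plates were LB agar with or without 25 μg/mL kanamycin plus 100 μg/mL carbenicillin, 50 μM IPTG and 0.2% rhamnose. Pooled colonies were amplicon-sequenced on an Illumina HiSeq 2500, and fitness is the DiMSum error-weighted combination of wild-type-normalised replicate fold changes, kanamycin versus none.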

| Sequence | self-splicing fitness (ln) (30 °C) | self-splicing fitness (ln) (37 °C) |
| --- | --- | --- |
| CAUCAGCAAUAUUACGGCGU | -2.3 ± 0.14 | -1.94 ± 0.17 |
| CAUCAGCAAUAUUACGGUAC | -2.95 ± 0.17 | -2.71 ± 0.18 |
| CAUCAGCAAUAUUACGUACA | -2.24 ± 0.14 | -1.92 ± 0.16 |
| CAUCAGCAAUAUUACGUGAC | -3.66 ± 0.19 | -1.2 ± 0.14 |
| CAUCAGCAAUAUUACGUGUC | -3.93 ± 0.19 | -1.08 ± 0.12 |
| CAUCAGCAAUAUUACGUUGC | -3.81 ± 0.27 | -2.84 ± 0.2 |
| CAUCAGCAAUAUUACGUUUU | -2.67 ± 0.1 | -1.8 ± 0.11 |
| CAUGAGCAAUAUUACGCACU | – | -1.96 ± 0.24 |
| CAUGAGCAAUAUUACGCAGU | -4.2 ± 0.39 | -2.63 ± 0.23 |
| CAUGAGCAAUAUUACGCAUA | -2.29 ± 0.26 | -1.78 ± 0.23 |
| CAUGAGCAAUAUUACGCCGA | -2.14 ± 0.47 | -2.48 ± 0.31 |
| CAUGAGCAAUAUUACGCGAA | -3.03 ± 0.17 | -1.57 ± 0.15 |
| CAUGAGCAAUAUUACGCGGC | -2.22 ± 0.43 | -2.58 ± 0.29 |
| CAUGAGCAAUAUUACGCUUC | – | -2.38 ± 0.32 |
| CAUGAGCAAUAUUACGGGUA | -2.86 ± 0.28 | -2.23 ± 0.28 |
| CAUGAGCAAUAUUACGGUAC | -2.67 ± 0.41 | -2.32 ± 0.34 |
| CAUGAGCAAUAUUACGUAAG | -0.906 ± 0.096 | -0.568 ± 0.11 |
| CAUGAGCAAUAUUACGUGAU | -2.58 ± 0.14 | -2.68 ± 0.2 |
| CAUGAGCAAUAUUACGUGCC | -3.97 ± 0.33 | -2.47 ± 0.32 |
| CAUGAGCAAUAUUACGUUAC | -3.24 ± 0.15 | -3.39 ± 0.2 |
| CAUUAGCAAUAUUACGAAAA | -2.21 ± 0.46 | -1.46 ± 0.45 |
| CAUUAGCAAUAUUACGAACG | 0.479 ± 0.09 | 0.736 ± 0.099 |
| CAUUAGCAAUAUUACGAAGU | – | -1.37 ± 0.44 |
| CAUUAGCAAUAUUACGAGCC | -2.89 ± 0.23 | -2.08 ± 0.27 |
| CAUUAGCAAUAUUACGAUCC | – | 0.538 ± 0.22 |

| Sequence | self-splicing fitness (ln) (30 °C) | self-splicing fitness (ln) (37 °C) |
| --- | --- | --- |
| CAUUAGCAAUAUUACGCACC | -2.94 ± 0.23 | -1.53 ± 0.19 |
| CAUUAGCAAUAUUACGCCAA | -2.88 ± 0.33 | -2.63 ± 0.48 |
| CAUUAGCAAUAUUACGCCCG | 0.404 ± 0.13 | 0.579 ± 0.17 |
| CAUUAGCAAUAUUACGCCGA | -2.32 ± 0.19 | -2.18 ± 0.2 |
| CAUUAGCAAUAUUACGCCGC | -1.43 ± 0.29 | – |
| CAUUAGCAAUAUUACGCGCA | -1.39 ± 0.16 | -1.52 ± 0.17 |
| CAUUAGCAAUAUUACGCGUU | -2.44 ± 0.12 | -1.48 ± 0.17 |
| CAUUAGCAAUAUUACGGAAA | -3.86 ± 0.47 | -2.52 ± 0.3 |
| CAUUAGCAAUAUUACGGAGA | -3.12 ± 0.41 | -2.39 ± 0.3 |
| CAUUAGCAAUAUUACGGAUA | -2.16 ± 0.12 | -1.42 ± 0.13 |
| CAUUAGCAAUAUUACGGCGA | -2.09 ± 0.3 | -3.32 ± 0.47 |
| CAUUAGCAAUAUUACGGCGG | 0.0154 ± 0.093 | 0.252 ± 0.12 |
| CAUUAGCAAUAUUACGGGCG | -0.183 ± 0.092 | 0.436 ± 0.098 |
| CAUUAGCAAUAUUACGGGCU | -1.68 ± 0.2 | -2.7 ± 0.3 |
| CAUUAGCAAUAUUACGGGGC | -3.44 ± 0.23 | -1.95 ± 0.23 |
| CAUUAGCAAUAUUACGGUCA | -2.02 ± 0.3 | -1.63 ± 0.3 |
| CAUUAGCAAUAUUACGGUCU | -3.48 ± 0.31 | -2.22 ± 0.29 |
| CAUUAGCAAUAUUACGUAGC | -3.25 ± 0.19 | -2.4 ± 0.17 |
| CAUUAGCAAUAUUACGUAUA | -2.34 ± 0.14 | -0.81 ± 0.12 |
| CAUUAGCAAUAUUACGUCGG | -0.0974 ± 0.13 | 0.403 ± 0.14 |
| CAUUAGCAAUAUUACGUCUC | -3.28 ± 0.27 | -1.76 ± 0.23 |
| CAUUAGCAAUAUUACGUGUG | -2.91 ± 0.19 | -3.15 ± 0.19 |
| CCAAAGCAAUAUUACGAAUU | -3.58 ± 0.15 | -3.46 ± 0.19 |
| CCAAAGCAAUAUUACGACUA | -2.34 ± 0.23 | -2.7 ± 0.29 |
| CCAAAGCAAUAUUACGACUG | -0.588 ± 0.071 | -0.0799 ± 0.091 |

| Sequence | self-splicing fitness (ln) (30 °C) | self-splicing fitness (ln) (37 °C) |
| --- | --- | --- |
| CCAAAGCAAUAUUACGAUUC | -3 ± 0.31 | -1.71 ± 0.34 |
| CCAAAGCAAUAUUACGAUUU | -3.85 ± 0.2 | -1.98 ± 0.19 |
| CCAAAGCAAUAUUACGCUAA | -2.86 ± 0.23 | -2.7 ± 0.3 |
| CCAAAGCAAUAUUACGGAAU | -4.11 ± 0.39 | -2.95 ± 0.22 |
| CCAAAGCAAUAUUACGGGGA | -3.41 ± 0.16 | -2.93 ± 0.17 |
| CCAAAGCAAUAUUACGGGUU | -2.96 ± 0.15 | -2.5 ± 0.16 |
| CCAAAGCAAUAUUACGGUAU | -3.41 ± 0.18 | -2.08 ± 0.25 |
| CCAAAGCAAUAUUACGGUCG | -0.306 ± 0.066 | -0.674 ± 0.077 |
| CCAAAGCAAUAUUACGGUGA | -3.77 ± 0.25 | -4.04 ± 0.34 |
| CCAAAGCAAUAUUACGGUGC | -4.01 ± 0.16 | -2.19 ± 0.13 |
| CCAAAGCAAUAUUACGUAAC | -4.73 ± 0.27 | -2.72 ± 0.28 |
| CCAAAGCAAUAUUACGUCCG | -0.225 ± 0.11 | -0.354 ± 0.14 |
| CCAAAGCAAUAUUACGUCUC | -3.08 ± 0.13 | -2.89 ± 0.092 |
| CCAAAGCAAUAUUACGUGUA | -3.72 ± 0.14 | -1.97 ± 0.12 |
| CCAAAGCAAUAUUACGUGUU | -3.49 ± 0.11 | -1.56 ± 0.09 |
| CCAAAGCAAUAUUACGUUAA | -3.93 ± 0.26 | -1.97 ± 0.22 |
| CCAAAGCAAUAUUACGUUAG | -1.89 ± 0.071 | -0.652 ± 0.073 |
| CCAAAGCAAUAUUACGUUCG | -0.496 ± 0.055 | 0.165 ± 0.069 |
| CCAAAGCAAUAUUACGUUUG | -2.93 ± 0.089 | -1.43 ± 0.086 |
| CCACAGCAAUAUUACGAAGA | -1.5 ± 0.15 | -2.55 ± 0.24 |
| CCACAGCAAUAUUACGAAGC | -3.85 ± 0.2 | -2.3 ± 0.15 |
| CCACAGCAAUAUUACGAAGG | -3.62 ± 0.13 | -2.92 ± 0.16 |
| CCACAGCAAUAUUACGACAG | -1.06 ± 0.083 | -0.0398 ± 0.088 |
| CCACAGCAAUAUUACGACUC | -2.46 ± 0.18 | -2.76 ± 0.3 |
| CCACAGCAAUAUUACGAGCU | -3.67 ± 0.15 | -2.4 ± 0.15 |

| Sequence | self-splicing fitness (ln) (30 °C) | self-splicing fitness (ln) (37 °C) |
| --- | --- | --- |
| CCACAGCAAUAUUACGAGUU | -2.76 ± 0.09 | -2.76 ± 0.12 |
| CCACAGCAAUAUUACGCACA | -2.44 ± 0.15 | -2.33 ± 0.25 |
| CCACAGCAAUAUUACGCACG | -0.551 ± 0.063 | -0.626 ± 0.093 |
| CCACAGCAAUAUUACGCCUA | -2.47 ± 0.28 | -2.79 ± 0.34 |
| CCACAGCAAUAUUACGCUCA | -2.89 ± 0.21 | -2.41 ± 0.27 |
| CCACAGCAAUAUUACGCUCU | -4.07 ± 0.17 | -2.1 ± 0.16 |
| CCACAGCAAUAUUACGCUUG | -2.66 ± 0.075 | -1.96 ± 0.083 |
| CCACAGCAAUAUUACGGAUC | -4.54 ± 0.34 | -2.8 ± 0.27 |
| CCACAGCAAUAUUACGGCAA | -2.92 ± 0.29 | -2.74 ± 0.32 |
| CCACAGCAAUAUUACGGCAU | -3.72 ± 0.16 | -2.54 ± 0.18 |
| CCACAGCAAUAUUACGGCCC | -2.78 ± 0.29 | – |
| CCACAGCAAUAUUACGGCUG | -3.26 ± 0.15 | -2.48 ± 0.15 |
| CCACAGCAAUAUUACGGUCG | -0.147 ± 0.066 | 0.437 ± 0.086 |
| CCACAGCAAUAUUACGGUCU | -3.44 ± 0.11 | -1.87 ± 0.12 |
| CCACAGCAAUAUUACGUAAA | -3.84 ± 0.17 | -2.06 ± 0.18 |
| CCACAGCAAUAUUACGUAGA | -2.28 ± 0.085 | -1.5 ± 0.12 |
| CCACAGCAAUAUUACGUCAU | -3.67 ± 0.16 | -2.81 ± 0.16 |
| CCACAGCAAUAUUACGUGUU | -3.75 ± 0.1 | -3.15 ± 0.14 |
| CCAGAGCAAUAUUACGAACC | -2.33 ± 0.28 | -1.77 ± 0.38 |
| CCAGAGCAAUAUUACGAAGA | -3.48 ± 0.31 | -2.84 ± 0.43 |
| CCAGAGCAAUAUUACGAAUC | -3.76 ± 0.26 | -2.74 ± 0.27 |
| CCAGAGCAAUAUUACGACCU | -2.54 ± 0.23 | -3.29 ± 0.39 |
